Data taken from PMC7083937, “The ribosome-associated complex RAC serves in a relay that directs nascent chains to Ssb” (Nature Communications, 2020).
No end group written: not given here. fluorescein = fluorescein (N-terminal label)

Experiments:
[1] = nanoDSF thermal stability of RAC core complexes; assay type: physicochemical, Saccharomyces cerevisiae; conditions: 20 mM Hepes/KOH pH 7.5, 200 mM KCl, 5 mM MgCl2, 1 mM DTT, 20 to 90 °C at 1.5 °C/min, 330/350 nm, no peptide, three measurements shown
Method: (§1) The melting temperature of ScSsz1-Zuo1N, ScSsz1-Zuo1NΔLP or ScSsz1mut-Zuo1NΔLP with or without the LP-peptide (Peptide Specialty Laboratories GmbH, Heidelberg) were determined using the Prometheus NT.48 nanoDSF system using nano-DSF grade capillaries (NanoTemper Technologies GmbH). The measurements were performed in 20 mM Hepes/KOH pH 7.5, 200 mM KCl, 5 mM MgCl2, 1 mM DTT. The LP-peptide, which was dissolved in DMSO, was pre-diluted in the above buffer such that the final DMSO concentration in the experiment was below 0.5%. DMSO diluted in the same way was added to the negative control. Intrinsic protein fluorescence was measured continuously at 330 nm and 350 nm with a temperature gradient ranging from 20 to 90 °C at a rate of 1.5 °C/min. […]
(§2) (a-b) NanoDSF analysis of Ssz1-Zuo1N (blue) and Ssz1-Zuo1NDLP (orange) in a and Ssz1-Zuo1NDLP wit hout t he LP-pept ide (orange) or wit h t he LP-pept ide (blue) in b. Three measurements are shown.
(§3) Source data are provided as a Source Dat a f ile.
(§4) (c) Residues (L439S/K440P/I448F/G495K) mutated in Ssz1mut to block substrate binding to Ssz1-SBDb (cyan) are in stick representation (upper panel). Zuo1N is shown in orange a nd the LP-motif in yellow. Multiple sequence alignment of Hsp70 homologs (lower panel) wit h the mutations highlighted in yellow. The alignment is colored as in Fig. 2a. […]

[2] = tested on: ScSsz1-Zuo1NΔLP; experiment: nanoDSF melting temperature with/without LP-peptide; assay type: binding, Saccharomyces cerevisiae; conditions: DMSO negative control (<0.5%), pH 7.5, 200 mM KCl, 20 to 90 °C at 1.5 °C/min, three measurements shown
Method: as §1, §2, §3, §4

[3] = target: T1, ScSsz1-Zuo1NΔLP complex (ScSsz1 with ScZuo1NΔLP residues 10-50) (S. cerevisiae, UniProt P38788 1-538; P32527 10-50); experiment: nanoDSF; melting temperature of the complex with or without LP-peptide; 20 mM Hepes/KOH pH 7.5, 200 mM KCl, 5 mM MgCl2, 1 mM DTT; 20 to 90 °C at 1.5 °C/min; conditions: both partners purified
T1 construct: Ssz1, S. cerevisiae; Zuo1, S. cerevisiae, residues 10-50, lacking the LP-motif (ScZuo1NΔLP); residues of the 3C site may be left on Zuo1NΔLP; not shown: His6-MBP, N-terminal, cleaved
T1 sequence (looked up) 1: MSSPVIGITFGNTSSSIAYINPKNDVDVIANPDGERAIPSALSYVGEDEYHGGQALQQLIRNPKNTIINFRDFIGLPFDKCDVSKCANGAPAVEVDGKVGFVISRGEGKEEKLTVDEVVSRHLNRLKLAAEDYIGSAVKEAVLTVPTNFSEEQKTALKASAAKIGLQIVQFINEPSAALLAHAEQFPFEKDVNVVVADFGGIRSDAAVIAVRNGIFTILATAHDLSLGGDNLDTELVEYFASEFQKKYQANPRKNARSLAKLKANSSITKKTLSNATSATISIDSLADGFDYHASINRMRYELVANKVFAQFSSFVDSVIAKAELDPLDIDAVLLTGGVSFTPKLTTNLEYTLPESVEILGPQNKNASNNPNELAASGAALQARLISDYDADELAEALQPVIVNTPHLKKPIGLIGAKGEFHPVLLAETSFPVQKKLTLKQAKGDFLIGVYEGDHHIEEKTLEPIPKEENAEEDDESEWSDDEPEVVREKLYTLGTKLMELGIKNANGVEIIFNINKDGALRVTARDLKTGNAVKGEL
T1 sequence (looked up) 2: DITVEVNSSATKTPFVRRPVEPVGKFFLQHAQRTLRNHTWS

[4] = target: T1, ScSsz1-Zuo1NΔLP complex (ScSsz1 with …); experiment: fluorescence polarisation; fluorescence anisotropy; two-fold serial dilutions of the protein complex mixed 1:1 with 40 nM fluorescein peptide; 20 mM Hepes/KOH pH 7.5, 200 mM KCl, 5 mM MgCl2, 1 mM DTT, 1 µM BSA; room temperature, 30 min; one-site binding fit; affinity called estimated; conditions: both partners purified

B1: RAC core complex: ScSsz1 with ScZuo1N (residues 1-50) (protein)
chain 1: MSSPVIGITFGNTSSSIAYINPKNDVDVIANPDGERAIPSALSYVGEDEYHGGQALQQLIRNPKNTIINFRDFIGLPFDKCDVSKCANGAPAVEVDGKVGFVISRGEGKEEKLTVDEVVSRHLNRLKLAAEDYIGSAVKEAVLTVPTNFSEEQKTALKASAAKIGLQIVQFINEPSAALLAHAEQFPFEKDVNVVVADFGGIRSDAAVIAVRNGIFTILATAHDLSLGGDNLDTELVEYFASEFQKKYQANPRKNARSLAKLKANSSITKKTLSNATSATISIDSLADGFDYHASINRMRYELVANKVFAQFSSFVDSVIAKAELDPLDIDAVLLTGGVSFTPKLTTNLEYTLPESVEILGPQNKNASNNPNELAASGAALQARLISDYDADELAEALQPVIVNTPHLKKPIGLIGAKGEFHPVLLAETSFPVQKKLTLKQAKGDFLIGVYEGDHHIEEKTLEPIPKEENAEEDDESEWSDDEPEVVREKLYTLGTKLMELGIKNANGVEIIFNINKDGALRVTARDLKTGNAVKGEL
chain 2: MFSLPTLTSDITVEVNSSATKTPFVRRPVEPVGKFFLQHAQRTLRNHTWS
modifications: left off: His6-SUMO, N-terminal, state not stated | His6-MBP, N-terminal, cleaved
melting temperature (thermal stability of RAC core complex) [1]: 52.9 °C

B2: Ssz1-Zuo1NΔLP: ScSsz1 with ScZuo1NΔLP (residues 10-50) lacking the LP-motif (protein)
chain 1: MSSPVIGITFGNTSSSIAYINPKNDVDVIANPDGERAIPSALSYVGEDEYHGGQALQQLIRNPKNTIINFRDFIGLPFDKCDVSKCANGAPAVEVDGKVGFVISRGEGKEEKLTVDEVVSRHLNRLKLAAEDYIGSAVKEAVLTVPTNFSEEQKTALKASAAKIGLQIVQFINEPSAALLAHAEQFPFEKDVNVVVADFGGIRSDAAVIAVRNGIFTILATAHDLSLGGDNLDTELVEYFASEFQKKYQANPRKNARSLAKLKANSSITKKTLSNATSATISIDSLADGFDYHASINRMRYELVANKVFAQFSSFVDSVIAKAELDPLDIDAVLLTGGVSFTPKLTTNLEYTLPESVEILGPQNKNASNNPNELAASGAALQARLISDYDADELAEALQPVIVNTPHLKKPIGLIGAKGEFHPVLLAETSFPVQKKLTLKQAKGDFLIGVYEGDHHIEEKTLEPIPKEENAEEDDESEWSDDEPEVVREKLYTLGTKLMELGIKNANGVEIIFNINKDGALRVTARDLKTGNAVKGEL
chain 2: DITVEVNSSATKTPFVRRPVEPVGKFFLQHAQRTLRNHTWS
modifications: left off: His6-SUMO, N-terminal, state not stated | His6-MBP, N-terminal, cleaved
notes: ScSsz1 with ScZuo1NΔLP (residues 10-50) lacking the LP-motif
melting temperature (thermal stability of RAC core complex) [1]: 39.7 °C
melting temperature of Ssz1-Zuo1NΔLP without LP-peptide [2]: 40.3 °C

B3: LP-peptide (MFSLPTL, ScZuo1 residues 1-7), free peptide (peptide)
peptide: MFSLPTL
notes: LP-motif of Zuo1, S. cerevisiae, residues 1-7; source: synthetic peptide (Peptide Specialty Laboratories GmbH, Heidelberg)
binding result [3]: binds

B4: LP-peptide (MFSLPTL) labelled at the N terminus with fluorescein (peptide)
peptide: fluorescein-MFSLPTL
notes: as for B3
Kd [4]: 11.9 ± 4 µM
